Positions count from the first letter of the chain named. Each block holds one binder with its values, some of them ahead of it.
Target: T1, cynomolgus PRLR ECD (cynomolgus monkey)
T1 chain: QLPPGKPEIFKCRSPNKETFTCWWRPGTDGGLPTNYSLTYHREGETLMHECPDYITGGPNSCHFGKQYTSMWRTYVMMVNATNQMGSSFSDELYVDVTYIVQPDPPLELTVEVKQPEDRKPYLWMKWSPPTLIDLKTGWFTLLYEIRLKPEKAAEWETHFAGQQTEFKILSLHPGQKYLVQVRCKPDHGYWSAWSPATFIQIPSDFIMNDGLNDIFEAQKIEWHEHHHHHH
Assay: ELISA

binding result: no binding
B1: HP-PR01B01 (antibody, V domains shown)
VH: EVHLVESGPDLVKPSQSLSLTCTVTGYSITSGYNWHWIRQFPGNKLEWMGYIHYSGSTKYDPSLKSRISFTRDTSRNQFFLQLNSVTTEDRATYYCARSEAGGYSWFAYWGQGTLVTVSA
VL: DIVMTQSPAIMSASPGEKVTMACSASSSVNYMHWYQQKSGTSPKRWIYDTSKLASGVPARFSGSGSGTSYSLTISSMEAEDAATYYCQQWSSNPLTFGAGTKLELK

binding result: no binding
B2: H-PR-B06 (antibody, V domains shown)
VH: DVKLVESGGGLVKPGGSLKLACAASGFTFSSYTMSWVRQTPEKRLEWVATISSGGSYTYYPDSVKGRFTISRDNAKNTLYLQLSSLKSEDTAMYYCTRDRYYSTTPDWYFDVWGAGTTVTVSS
VL: DIVLTQSPATLSVTPGDSVSLSCRATQIIFNNLHWYQQKSHESPRLLITYTSQSISGIPSRFSGSGSGTDFTLTINSVETEDFGMYFCQQSNTWPRTFGGGTKLEIK

binding result: no binding
B3: HP-PR02H02 (antibody, V domains shown)
VH: B2 VH with D1E, K3M, V119L
VL: B2 VL with L4I

Reference: patent US20260285993 (published 2026)
